One block for each molecule: values may come before it.
Tests used:
[1] = test system: T1, DFF40 (40-kDa subunit of DNA fragmentation factor), native human protein
T1 sequence: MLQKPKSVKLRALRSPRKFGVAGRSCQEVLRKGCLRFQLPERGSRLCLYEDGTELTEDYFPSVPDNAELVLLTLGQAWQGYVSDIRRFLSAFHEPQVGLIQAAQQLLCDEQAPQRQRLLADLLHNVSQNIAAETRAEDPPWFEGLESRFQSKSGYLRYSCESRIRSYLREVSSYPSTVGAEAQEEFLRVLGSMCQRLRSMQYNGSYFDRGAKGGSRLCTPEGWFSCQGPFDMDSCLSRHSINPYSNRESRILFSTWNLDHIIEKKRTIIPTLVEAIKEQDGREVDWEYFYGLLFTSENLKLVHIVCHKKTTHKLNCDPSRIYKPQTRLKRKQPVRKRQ

[2] = test system: lamin B1
[3] = test system: T2, DFF45 (45-kDa subunit of DNA fragmentation factor), native human protein
T2 sequence: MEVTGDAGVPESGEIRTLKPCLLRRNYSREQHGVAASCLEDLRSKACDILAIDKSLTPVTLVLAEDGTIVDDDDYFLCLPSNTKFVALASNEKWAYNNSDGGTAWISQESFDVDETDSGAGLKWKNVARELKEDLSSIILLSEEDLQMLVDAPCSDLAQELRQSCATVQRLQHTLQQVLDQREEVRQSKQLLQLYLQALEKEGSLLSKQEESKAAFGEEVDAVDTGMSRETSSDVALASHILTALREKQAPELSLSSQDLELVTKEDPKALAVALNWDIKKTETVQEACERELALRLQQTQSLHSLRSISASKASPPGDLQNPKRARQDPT

[4] = test system: T3, DFF45 fusion protein with a six-histidine tag at the NH2-terminus
T3 sequence: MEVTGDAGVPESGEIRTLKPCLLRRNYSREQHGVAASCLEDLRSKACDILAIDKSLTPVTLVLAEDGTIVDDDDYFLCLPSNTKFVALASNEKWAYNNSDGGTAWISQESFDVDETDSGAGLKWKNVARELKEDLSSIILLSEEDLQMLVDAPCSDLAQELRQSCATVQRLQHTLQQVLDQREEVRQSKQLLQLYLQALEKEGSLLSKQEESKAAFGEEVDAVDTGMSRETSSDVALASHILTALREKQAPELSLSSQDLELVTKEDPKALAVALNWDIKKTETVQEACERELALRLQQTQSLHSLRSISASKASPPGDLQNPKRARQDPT

[5] = test system: poly(ADP-ribose) polymerase (PARP)
[6] = target: recombinant DFF40 tagged with six histidine at its C-terminus (human) (UniProt O76075); experiment: cell-based or functional assay
[7] = target: T4, DFF40 (40-kDa subunit of DNA fragmentation factor), native human protein (human, UniProt O76075 1-338); experiment: co-elution from the Mono Q column (last purification step), SDS-PAGE with Coomassie stain
T4 construct: Native protein purified from HeLa S-100 as part of the DFF heterodimer; also called 40-kDa polypeptide
T4 sequence: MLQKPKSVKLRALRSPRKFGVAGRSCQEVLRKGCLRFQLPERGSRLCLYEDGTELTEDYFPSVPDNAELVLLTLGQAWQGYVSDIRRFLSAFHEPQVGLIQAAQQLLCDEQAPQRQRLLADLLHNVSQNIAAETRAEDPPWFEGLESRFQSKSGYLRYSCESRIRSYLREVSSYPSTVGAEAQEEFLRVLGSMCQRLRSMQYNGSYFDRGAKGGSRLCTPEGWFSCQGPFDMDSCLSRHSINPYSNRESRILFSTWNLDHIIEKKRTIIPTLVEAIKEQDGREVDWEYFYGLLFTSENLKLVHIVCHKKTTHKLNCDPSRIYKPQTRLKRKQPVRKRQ
Description: Ammonium sulfate (1 M) was added directly to the SP-Sepharose 0.5 M eluate. After rotating at 4° C. for 1 hr, the sample were centrifuged at 15,000 rpm for 30 min in a Sovall IA-600 rotor. The supernate was directly loaded onto a 100 ml phenyl Sepharose column equilibrated with buffer A containing 1 M ammonium sulfate and 0.5 M NaCl. The column was washed with three bed volumes of buffer A containing 1 M ammonium sulfate and 0.5 M NaCl and the bound material was eluted with two bed volumes of buffer A. […] was added to the phenyl Sepharose eluate to 50% saturation. After stirring at 4° C. for 5 hr, the sample was centrifuged at 15,000 rpm for 15 min in a Sovall JA-600 rotor. The pellet was resuspended in buffer A and loaded onto a Superalex-200 16/60 gel filtration column (Pharmacia) equilibrated with buffer A and eluted with the same buffer. Fractions of 4 ml were collected and assayed for DFF activity. The active fractions from the gel filtration column were pooled and loaded onto a MonoS 10/10 column (Pharmacia) equilibrated with buffer A. The column was washed with 50 ml of buffer A and eluted with a 200 ml 0-0.2 M linear NaCl gradient. […]
DFF activity eluted from a Mono Q column, the last step of the purification, at about 250 mM NaCl. […] No other proteins were detected in fraction containing the peak of DFF activity.

Molecule: caspase-3 (active recombinant)
cleavage of biotinylated DFF (SDS-PAGE, streptavidin-peroxidase chemiluminescence) [1]: the 40-kDa subunit remained intact
time course of cleavage in isolated nuclei (immunoblot) [2]: the rate of lamin B1 cleavage by caspase-3 remained the same with or without DFF
cleavage of biotinylated DFF (SDS-PAGE, streptavidin-peroxidase chemiluminescence) [3]: Incubation with caspase-3 resulted in the cleavage of the 45-kDa subunit into fragments of molecular masses of 30 kDa and 11 kDa
cleavage of the fusion protein (SDS-PAGE) [4]: Incubation of this fusion protein with caspase-3 resulted in its cleavage into three fragments of 30 kDa, 18 kDa and 11 kDa at the early time point
rate of cleavage in isolated nuclei (immunoblot) [5]: The same conclusion was obtained when the rate of cleavage of PARP was measured

DNase activity of A-DFF40 on purified plasmid DNA [6]: > 10 fold
Molecule: histone H1

binding result [7]: binds
B1: DFF45 (45-kDa subunit of DNA fragmentation factor), native human protein (other)
chain: MEVTGDAGVPESGEIRTLKPCLLRRNYSREQHGVAASCLEDLRSKACDILAIDKSLTPVTLVLAEDGTIVDDDDYFLCLPSNTKFVALASNEKWAYNNSDGGTAWISQESFDVDETDSGAGLKWKNVARELKEDLSSIILLSEEDLQMLVDAPCSDLAQELRQSCATVQRLQHTLQQVLDQREEVRQSKQLLQLYLQALEKEGSLLSKQEESKAAFGEEVDAVDTGMSRETSSDVALASHILTALREKQAPELSLSSQDLELVTKEDPKALAVALNWDIKKTETVQEACERELALRLQQTQSLHSLRSISASKASPPGDLQNPKRARQDPT
notes: Native protein, purified from HeLa S-100 as part of the DFF heterodimer, or endogenous in 293 and U937 cell extracts; also called 45-kDa polypeptide; endogenous protein

Source: patent publication US20010011078A1 (University of Texas, published 2001)
